Here are results for 4 molecules from PMC13185310, “A versatile nanobody platform for live and super-resolution imaging of synaptic vesicle dynamics and plasticity in rodent and human neurons” (Journal of Nanobiotechnology, 2026).

What all share (details): one partner purified
Assay [1] concerns the target T1, endogenous Syt1 on the surface of live hippocampal neurons (uPAINT) (Rattus norvegicus (assumed), UniProt P21707).
T1 construct: Synaptotagmin 1 (Syt1), endogenous; also called surface-exposed Syt1; source: endogenous, live hippocampal neurons (21-22 DIV)
Put plainly: single-molecule imaging on live neurons (uPAINT); live hippocampal neurons (21-22 DIV) in high-K+ buffer with 1 nM labelled nanobody complex, HILO, 50 Hz for 320 s, 37 °C.

Assay [2] addresses T2, endogenous Synaptotagmin 1 of wild-type mouse neurons / brain (Mus musculus, UniProt P46096).
T2 construct: Synaptotagmin 1 (Syt1), mouse, endogenous; On live neurons in the uptake experiment; in a detergent lysate in the immunoprecipitation; also called endogenous Syt1; Syt1; source: endogenous, WT mouse brain lysate (methods; the legend says mouse primary neurons); endogenous, on live WT mouse primary neurons
Nature of the assay: co-IP; GFP-tagged nanobody preloaded on GFP Selector beads; lysate of WT or Syt1 KO mouse brain, 1 h at 4 °C; blot with a Syt1 cytoplasmic antibody.

Assay [3] addresses T3, endogenous human Syt1 of human iPSC-derived neurons (Homo sapiens, UniProt P21579).
T3 construct: Synaptotagmin 1 (Syt1), human, endogenous; also called endogenous Syt1; source: endogenous, live human iPSC-derived hypothalamic-like neurons
Nature of the assay: immunostaining of cells or tissue; live staining of 80-day-old human iPSC-derived hypothalamic neurons with 5.5 µM pHluorin-labeled nanobody, 20 min at 37 °C, with 30 mM KCl or 1 µM TTX, after blocking the surface pool with unlabeled nanobody; fixed and stained with anti-GFP, anti-Syt1, anti-TUBB3.

Assay [4] addresses T4, endogenous Synaptotagmin 1 of primary hippocampal neurons (proximity labelling and PLA) (rat (endogenous in primary hippocampal …, UniProt P21707)).
T4 construct: Synaptotagmin 1 (Syt1), endogenous; spectra searched against the Rattus norvegicus proteome (UP000234681); neurons 'in most cases' from Wistar rat pups; also called Syt1; Syt1-lum; source: endogenous, live primary hippocampal neurons
Put plainly: proximity labelling; NbLumSyt1-APEX2 taken up by live primary neurons (30 min, with biotin-phenol), 1 mM H2O2 for 30 s; streptavidin beads, LC-MS/MS; controls: no nanobody, NbALFA-APEX2.

T1 sequence (P21707 whole entry): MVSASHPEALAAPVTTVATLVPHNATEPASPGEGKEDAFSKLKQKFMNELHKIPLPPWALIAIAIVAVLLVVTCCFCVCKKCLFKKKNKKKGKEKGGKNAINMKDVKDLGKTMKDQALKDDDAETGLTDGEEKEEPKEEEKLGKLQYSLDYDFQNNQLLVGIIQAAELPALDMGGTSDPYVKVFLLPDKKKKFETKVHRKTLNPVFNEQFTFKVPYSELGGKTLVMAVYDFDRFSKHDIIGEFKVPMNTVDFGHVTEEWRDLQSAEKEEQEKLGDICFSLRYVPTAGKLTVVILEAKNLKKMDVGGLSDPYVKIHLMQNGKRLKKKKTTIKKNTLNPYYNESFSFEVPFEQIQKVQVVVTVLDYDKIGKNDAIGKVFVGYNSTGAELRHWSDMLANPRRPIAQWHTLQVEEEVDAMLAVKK
T4 sequence (P21707 whole entry): as above
T2 sequence (P46096 whole entry): as the sequence (P21707 whole entry) above, with H6R counted along it
T3 sequence (P21579 whole entry): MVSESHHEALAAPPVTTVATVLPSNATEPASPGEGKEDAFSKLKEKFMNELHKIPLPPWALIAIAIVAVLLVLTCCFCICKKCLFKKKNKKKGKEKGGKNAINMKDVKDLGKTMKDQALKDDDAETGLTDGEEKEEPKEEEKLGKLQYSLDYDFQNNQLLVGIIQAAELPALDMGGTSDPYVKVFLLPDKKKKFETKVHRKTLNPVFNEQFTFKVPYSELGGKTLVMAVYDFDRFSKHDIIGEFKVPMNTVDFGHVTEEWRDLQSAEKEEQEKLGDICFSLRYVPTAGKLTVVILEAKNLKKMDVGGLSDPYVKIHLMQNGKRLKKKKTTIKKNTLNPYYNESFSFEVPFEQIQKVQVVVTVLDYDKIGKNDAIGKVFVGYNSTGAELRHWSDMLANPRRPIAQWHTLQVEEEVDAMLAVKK

B1: NbLumSyt1-HALO bound to the Halo-ligand JF549 (VHH)
VHH: EVQLVESGGGLVQTGGSLRLSCTASGSIGSISVMGWYRQVPGTQYELVAGISRGGSTWYEDSVKGRFTISRDNAKNTLYLQMNSLKPEDTGMYYCAGGDYSDRLGSWGQGTQVTVSS
notes: alpaca nanobody clone 1F12; as the nanobody of m1 (PDB 8B8I chain A); also called NbLumSyt1-HALO/JF549; NbLumSyt1-Halo/JF549; source: produced and purified via NanoTag Biotechnologies
With B1, in assay [1], the binding result was “binds”.

B2: NbLumSyt1 fused to a GFP tag (VHH)
VHH: EVQLVESGGGLVQTGGSLRLSCTASGSIGSISVMGWYRQVPGTQYELVAGISRGGSTWYEDSVKGRFTISRDNAKNTLYLQMNSLKPEDTGMYYCAGGDYSDRLGSWGQGTQVTVSS
notes: alpaca nanobody clone 1F12; as the nanobody of m1 (PDB 8B8I chain A); Held on GFP Selector beads in the IP; detected with anti-GFP after uptake in neurons; also called GFP-tagged nanobody
Turning to B2, the binding result in assay [2] is reported as “binds”.

B3: NbLumSyt1-pHluorin (VHH)
VHH: EVQLVESGGGLVQTGGSLRLSCTASGSIGSISVMGWYRQVPGTQYELVAGISRGGSTWYEDSVKGRFTISRDNAKNTLYLQMNSLKPEDTGMYYCAGGDYSDRLGSWGQGTQVTVSS
notes: alpaca nanobody clone 1F12; as the nanobody of m1 (PDB 8B8I chain A); In uPAINT it was precomplexed with an anti-GFP nanobody carrying Atto647N (a label); A version with a TEV site in the linker also exists; also called NbSyt1-pH; pHluorin-labeled Syt1 nanobody
With B3, the binding result in assay [1] and in assay [3] was “binds” throughout.

B4: NbLumSyt1-APEX2 (VHH)
VHH: EVQLVESGGGLVQTGGSLRLSCTASGSIGSISVMGWYRQVPGTQYELVAGISRGGSTWYEDSVKGRFTISRDNAKNTLYLQMNSLKPEDTGMYYCAGGDYSDRLGSWGQGTQVTVSS
notes: alpaca nanobody clone 1F12; as the nanobody of m1 (PDB 8B8I chain A); also called Nb-APEX2
Take B4: in assay [4], the binding result is “binds”.
